Experimental data: the NTF2 design screens of Basanta et al. (2020)

Experiment: protease stability score; higher = more stable; yeast display proteolysis, trypsin and chymotrypsin;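 further: relative to predicted unfolded state with 0 unfolded-like and 1 meaning tenfold more protease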

Sequence | protease stability score
SEDEEKTRKFIELFLYLWVTGDEDSLSELLDPNVRAEVNGKSAHGRDEVSKLSDVFMKELGVKHTRQTTQHRYEIQGDKLKSHLTIDIEVDGQNVKEFVVIVVEKINGRWIIRHIRFE | 1.1
SHWDQRLEELSKLVVDHLNTGDFEEIKRLVDPHMRLEIGDKTRIGREQIHEWLEEFLRRYKNARVEIRIEHHELYGEKFFADTRLNLHVGDKHHHFDTRLEIHVIDGKIHSMSMRIH | 1.1
DELDSILEEFARVFMQNLETGDEDSSRHYLDPHYRVELDIGDWTIQMHGWRSDHIRRRYLGADHERILIRDYRVYNGRIRVEGQMDITVNGKRVTYHTEFILHVVNGKATRVSMKFE | 0.707
SEHDHHSEWMSRLMFEAWLTGDEDFIMHLADPNTRSHLHYGDKEVNLHGRESFKRMVEELHRELGANHRDLKEVRLQGDKSLLRLEVRVGDKRREQHIIIIIVNGRVKSITVEVR | 0.874
DEDKKHALEMAEMLFELIWTGDEHMLKELMDPNTRLFFNGRETHGWEFLSRELIHLRHRSDFRIRDVRIIGDYLHVDGEFHTILNINGVDIELHLHMEIVLFKIDGRWVVHEIRFL | 1.72
SEEERLLHEFWERLQHSHKTGNEEEYRKNIDPHARLDIDGREMHGWENFFHFFVEMRVHDLRIEDYRVQGDKVIVHTRVDGIVNGVRTEIHSELIIRKIDGRWFIEAMTIK | 1.07
DRIEELSEEALHILKEVVRTGDERLIEENMDPNTRLEIGDKEFHGRHYAERFARDLGIKHMTFHHYETIDGRVHIHGTLHFNGRTHHTQIVLLKVNGQWRIERIHID | 0.669
DELERDSRRVMEKLLEILYTGNFDELRKLFDPNVITHIDGRHIHGMHITIRELLRIQEELGYEFVEARMTSTHHQGDKLYVHLEYRIGDKTTRFFWFITKIDGRWWITEMRFE | 1.4
TEDEHDARLALHILLELLRTGDEDSLSKYIDPNVRNEVNGQDLHGRNTMERLLKHWRIEEVRVKDVRVQGDKVIMHGREVIRQGDYVIDQDVHWLLVKVDGRWLLHSIHFR | 0.918
DETEHHAREMAELLLHVILTGDEHLMERLIDPDVKLHSFFNGRQFHRIGMEELKRYLEEWRREIRLKDVRIRQFEVQGDKFRLDMEVEGNINGRDNVTKTELIIITVNGRLHEIDIRIE | 2.1
DEDKKLHHEALEVWERVLKTGNFRIESEYLDPHARNEFEGRHFHGRELFHELNEELGVENVRFHHFHVHDLETFNGRILMRFHMEGEINGQQFNVEVKVDTEKYDGVWFTRSFVER | 0.38
HEHEQQVREIAKKLLHALLTGDEDEIYRLIDPNVRLIILVGDKEIHVHGRELVSEVMHKLFRELGVDHWHSRSELLIGNKFHVDTEQHFNGQTFETQVHILVIDGKVHLLTLQIH | 1.88
DETKDDSDWAVELWEKLFKTGDEHLHERLADPHTRKEVGDKEFHGRELILKQFVEFVEKVKNIQLEFTHVKEQGEKVEMDTTLRIDGVRIRTKMIALKIDGVWLVKIIHIE | 0.964
DESDKEREDVFRSWIESMRTGDEKNMRELMDPHARTEIGDKEYHGREVVEYIRREWRITHVELHRIEKQGDKIISHGHDEINIDGRKLYIHSRIIARKVNGVWIIESLEFH | 1.29
SEEHEDAHEMFELWSILLITGDERILHQLMDPDAKTTIDGQEFHGREKLIEVFREFLKRIDHIHEVEVTRMTFFDGRLHINLRVHVTINGVHRQFRVIIIIVKIDGRWVIQSQEIV | 1.63
DDHEKIVQHLLEEIIEIWLTGNFEEHLKRFDPDMRLNVNGVEHHGRESNERWFNKQIERYKNATIHHRIESVDVQGDKVHSDGELIYIQGDKIIRTKIIVRLLVVNGRIKRIEIEMI | 1.31
DEEEEEARIAVDMFRRTVETGDEELLRKMIDPHVRMHVGDKDLHGRDFAVEIFHKLGVDHFEIRHQRLIGDKVELDIKVNVNGKEMETHSHLEKVNGRWVIRSLDVR | 1.25
DELERLVEDLVRILLEILLTGDWKILMRLMDPDARFIYGDKQRVGMEEVIKELHRLKEEIRINSIEIKRVEIQGDWVHVDGRSDVEVGDKRRSTEVRYHFHVFNGRMRRINIEVE | 1.12
SHEEEMAERALRKFIHSVQTGDEDSWEELLDPNVRINIGDKRHVGRHEAVKLFRQRIRHLRIDHIELRERDYYGDKLILRIIVEGRFNGQETTLELHIVFWKFDGRWIIESMEHK | 2.77
SEEEEFARQMMEHFLKNFITGNEELFKENLDPDVRIIIVVNGREFENVGREHFWHHFRRSFEELGVKHLHLKDIRVINGRLFLFAEIEIGDKRVELHFLVLKVDGKWVIEELHIKFL | 2.32
NKMDEYAYKMLELWLEAFLTGDFEFIEKNLDPHVRSRINGVELIGRHLYLEMVRREMEEIRVKDVHPRRVEIIDGVVHFHGEWNGQVNGRETHKEHEVEIIVVNGRLKSVIFRIR | 1.27
SEDEQSLREHIEWIIRALETGDWKKIEKLLDPHTRQDVNGREHIGREEVSRAIVQTFETLGVDHVQLTEIRNINGRLIVHVKMDVNGKILDLELIVTKIDGKWFMESVRLH | 1.89
SEEEEVLRHLSKTFTRAMLTGDWKFLFEFADPHVRNDVGDWTRIGMHSMIELLELLHRELRITHLHIDEVRVIGNKAEWEGRNNVRINGQEDKRDVRLELEIVDGKMSLVNVEFK | 0.364
DERDEQAEEAMKIWIHSVQTGNEDLLRRLVDPHVRITVGDKEIHGREQFAEYYHRLVTELRIHIHIHRITVINGQVHSHVEIRIQIGDKEISFETRMFILKVDGVWLFKREEVT | 0.744
SEVAEVAREIVEIITKREYTGDEKTLDRMMDPNVRVEIGDWEIIGRDIYQKFVIELRVKDMHVRFKDVRVQGDFAFQDTELRMHGIIDGKDRETSHDTHWVFYKVDGRWLVHSIHIK | 1.3
